Results from publication PMC8560851 (Scientific Reports, 2021).
Changes are numbered by the printed parent chain.

T1: VEGF antigen as co-crystallised with the bH1-Fab H3 variants (Homo sapiens, VEGF-A residues 1-110 of …)
T1 construct: VEGF-A, human
T1 chain: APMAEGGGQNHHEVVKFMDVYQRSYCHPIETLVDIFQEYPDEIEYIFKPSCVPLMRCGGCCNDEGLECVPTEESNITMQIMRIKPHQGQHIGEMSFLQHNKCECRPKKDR

B1: bH1 Fab H3 variant 14_0130 (Fab, V domains shown)
VH: EVQLVESGGGLVQPGGSLRLSCAASGFNIKDTYIHWVRQAPGKGLEWVARIYPTNGYTRYADSVKGRFTISADTSKNTAYLQMNSLRAEDTAVYYCAKLGIGYYYYGMDVWGQGTLVTVSS
VL: DIQMTQSPSSLSASVGDRVTITCRASQDIPRSISGYVAWYQQKPGKAPKLLIYWGSYLYSGVPSRFSGSGSGTDFTLTISSLQPEDFATYYCQQHYTTPPTFGQGTKVEIK
notes: also in PDB 7KF1; also called design 14_0130; source: CHO-3E7, co-transfected, purified from supernatant (HisTrap IMAC, SEC Superdex-200)
B2: bH1 Fab H3 variant 12_0327 (Fab, V domains shown)
VH: EVQLVESGGGLVQPGGSLRLSCAASGFNIKDTYIHWVRQAPGKGLEWVARIYPTNGYTRYADSVKGRFTISADTSKNTAYLQMNSLRAEDTAVYYCARGRKYSSSFDYWGQGTLVTVSS
VL: B1 VL
notes: also in PDB 7KF2; also called design 12_0327; source: CHO-3E7, co-transfected, purified from supernatant (HisTrap IMAC, SEC Superdex-200)
B3: bH1 Fab H3 variant 13_0346 (Fab, V domains shown)
VH: EVQLVESGGGLVQPGGSLRLSCAASGFNIKDTYIHWVRQAPGKGLEWVARIYPTNGYTRYADSVKGRFTISADTSKNTAYLQMNSLRAEDTAVYYCARGGSFYYYYMDVWGQGTLVTVSS
VL: B1 VL
notes: also in PDB 7KF0; also called design 13_0346; source: CHO-3E7, co-transfected, purified from supernatant (HisTrap IMAC, SEC Superdex-200)
B4: bH1 Fab H3 variant 16_0325 (Fab, V domains shown)
VH: EVQLVESGGGLVQPGGSLRLSCAASGFNIKDTYIHWVRQAPGKGLEWVARIYPTNGYTRYADSVKGRFTISADTSKNTAYLQMNSLRAEDTAVYYCARGGAVAGTGVYYFDYWGQGTLVTVSS
VL: B1 VL
notes: also in PDB 7KEZ; also called design 16_0325; source: CHO-3E7, co-transfected, purified from supernatant (HisTrap IMAC, SEC Superdex-200)
B5: bH1 Fab H3 variant 16_0460 (Fab, V domains shown)
VH: B4 VH with G99P, G100S, A101G, V102G, A103S, G104R, T105S, G106W, V107L
VL: B1 VL
notes: also called design 16_0460; source: CHO-3E7, co-transfected, purified from supernatant (HisTrap IMAC, SEC Superdex-200)
B6: bH1 Fab H3 variant 14_0822 (Fab, V domains shown)
VH: EVQLVESGGGLVQPGGSLRLSCAASGFNIKDTYIHWVRQAPGKGLEWVARIYPTNGYTRYADSVKGRFTISADTSKNTAYLQMNSLRAEDTAVYYCGRSGPRLGMYYFDFWGQGTLVTVSS
VL: B1 VL
notes: source: CHO-3E7, co-transfected, purified from supernatant (HisTrap IMAC, SEC Superdex-200)
B7: bH1 Fab H3 variant 14_0480 (Fab, V domains shown)
VH: B6 VH with G97A, S99G, G100L, P101E, L103S, M105N, F108L, F110Y
VL: B1 VL
notes: as for B6
B8: bH1 Fab H3 variant 14_0622 (Fab, V domains shown)
VH: B6 VH with G97A, S99N, P101G, R102D, L103S, G104Y, M105S, Y106G, D109Q, F110H
VL: B1 VL
notes: as for B6
B9: bH1 Fab H3 variant 14_0905 (Fab, V domains shown)
VH: B1 VH with A97V, K98R, L99G, I101Y, G102L, Y103R, Y104D
VL: B1 VL
notes: as for B6
B10: bH1 Fab H3 variant 14_0490 (Fab, V domains shown)
VH: B1 VH with K98R, L99G, G100N, I101E, G102A, Y103G
VL: B1 VL
notes: as for B6
B11: bH1 Fab H3 variant 16_0102 (Fab, V domains shown)
VH: EVQLVESGGGLVQPGGSLRLSCAASGFNIKDTYIHWVRQAPGKGLEWVARIYPTNGYTRYADSVKGRFTISADTSKNTAYLQMNSLRAEDTAVYYCAKGWEGTTVTLTPVDYWGQGTLVTVSS
VL: B1 VL
notes: as for B6
B12: bH1 Fab H3 variant 15_0485 (Fab, V domains shown)
VH: EVQLVESGGGLVQPGGSLRLSCAASGFNIKDTYIHWVRQAPGKGLEWVARIYPTNGYTRYADSVKGRFTISADTSKNTAYLQMNSLRAEDTAVYYCARHGVRGYYYYYMDVWGQGTLVTVSS
VL: B1 VL
notes: as for B6
B13: bH1 Fab H3 variant 14_0472 (Fab, V domains shown)
VH: B6 VH with G97A, S99G, G100I, P101A, R102V, L103A, M105A, F110Y
VL: B1 VL
notes: as for B6
B14: parental bH1 Fab (Fab, V domains shown)
VH: not shown
VL: B1 VL
notes: heavy chain of the bH1 Fab; light chain of the bH1 Fab; also called bH1 antibody; parental antibody; source: CHO-3E7, co-transfected, purified from supernatant (HisTrap IMAC, SEC Superdex-200)
B15: bH1 Fab H3 variant 14_0129 (Fab, V domains shown)
VH: B1 VH with I101G, G102Q, Y103G, Y104S, G107H, M108F, V110Y
VL: B1 VL
notes: as for B6
B16: bH1 Fab H3 variant 14_0688 (Fab, V domains shown)
VH: B6 VH with G97A, P101R, R102D, L103A, G104Y, M105N, F110S
VL: B1 VL
notes: as for B6

Target: T1, VEGF antigen as co-crystallised with …
Assay: crystal structure; co-crystallization of bH1-Fab H3 variants with the VEGF antigen and X-ray diffraction; methods in Shi et al. (in preparation)
Settings: both partners purified

Row | binding result | Binder
1 | binds | B1
2 | binds | B2
3 | binds | B3
4 | binds | B4

Target: T2, Full-length isoform 165 of human VEGF-A (Homo sapiens, VEGF-A isoform 165, UniProt P15692-4)
T2 construct: VEGF-A isoform 165, human; Immobilised by amine coupling for SPR; Made in HEK cells, so probably the secreted 165-residue form without signal peptide (surmise); source: HEK, recombinant, purified
T2 sequence (P15692 other isoform, or with tags, fused parts or gaps): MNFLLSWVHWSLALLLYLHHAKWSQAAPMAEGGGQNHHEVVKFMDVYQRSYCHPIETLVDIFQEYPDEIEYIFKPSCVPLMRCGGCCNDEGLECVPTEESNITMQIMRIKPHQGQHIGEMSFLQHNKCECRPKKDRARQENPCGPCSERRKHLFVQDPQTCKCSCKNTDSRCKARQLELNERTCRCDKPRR
Assay: SPR; Biacore T200, 25 °C, PBS with 0.05% Tween 20 and 3.4 mM EDTA; VEGF-A amine-coupled to a CM-5 chip; Fab injected in single cycle kinetics with five increasing concentrations; double referenced; fit to a 1:1 Langmuir binding model
Settings: both partners purified

Row | Kd | binding result | Binder
5 | 2.8 µM |  | B1
6 | 4.5 µM |  | B5
7 | > 50 µM | no binding (tested: > 50,000 nM) | B6
8 | 2.72 µM |  | B7
9 | 1.6 µM |  | B2
10 | 4.97 µM |  | B8
11 | 0.08 µM |  | B3
12 | 5 µM |  | B9
13 | 3.59 µM |  | B10
14 | 50 µM |  | B11
15 | 0.31 µM |  | B12
16 | 59 µM |  | B13
17 | 0.1 µM |  | B14
18 | 3.48 µM |  | B15
19 | 3.6 µM |  | B16
